T1: human Inturned (human, UniProt Q9ULD6 1-942)
T1 sequence (looked up): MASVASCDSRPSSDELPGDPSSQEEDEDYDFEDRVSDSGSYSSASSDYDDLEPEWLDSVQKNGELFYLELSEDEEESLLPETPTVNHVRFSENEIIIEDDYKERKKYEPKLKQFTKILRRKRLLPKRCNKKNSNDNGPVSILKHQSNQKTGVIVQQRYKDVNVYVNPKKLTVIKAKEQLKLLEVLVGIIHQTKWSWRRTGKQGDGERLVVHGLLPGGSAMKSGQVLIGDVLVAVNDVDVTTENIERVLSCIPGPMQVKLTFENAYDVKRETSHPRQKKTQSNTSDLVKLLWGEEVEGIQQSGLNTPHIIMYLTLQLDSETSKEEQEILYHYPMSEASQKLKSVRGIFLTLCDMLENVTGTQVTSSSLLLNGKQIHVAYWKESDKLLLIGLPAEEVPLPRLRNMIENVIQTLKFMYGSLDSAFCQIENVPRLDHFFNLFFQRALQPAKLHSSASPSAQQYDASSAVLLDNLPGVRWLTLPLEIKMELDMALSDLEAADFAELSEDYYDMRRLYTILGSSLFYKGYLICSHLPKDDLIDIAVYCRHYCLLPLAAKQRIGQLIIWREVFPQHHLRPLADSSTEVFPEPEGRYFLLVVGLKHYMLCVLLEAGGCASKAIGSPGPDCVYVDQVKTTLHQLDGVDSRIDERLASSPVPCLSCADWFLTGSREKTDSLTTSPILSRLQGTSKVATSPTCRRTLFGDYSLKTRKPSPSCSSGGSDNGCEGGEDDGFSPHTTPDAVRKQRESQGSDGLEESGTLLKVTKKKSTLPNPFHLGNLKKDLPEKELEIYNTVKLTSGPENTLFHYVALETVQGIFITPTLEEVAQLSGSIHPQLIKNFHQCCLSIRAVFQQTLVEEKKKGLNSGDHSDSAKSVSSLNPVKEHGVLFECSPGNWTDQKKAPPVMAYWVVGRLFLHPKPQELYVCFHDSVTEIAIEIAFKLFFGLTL


Molecular target: T1, human Inturned
Test: cryo-EM structure

| binding result | Binder |
| --- | --- |
| binds | human Wdpcp (natural protein, UniProt O95876 1-746, looked up) MRREFCWDAYSKAAGSRASSPLPRQDRDSFCHQMSFCLTELHLWSLKNTLHIADRDIGIYQYYDKKDPPATEHGNLEKKQKLAESRDYPWTLKNRRPEKLRDSLKELEELMQNSRCVLSKWKNKYVCQLLFGSGVLVSLSLSGPQLEKVVIDRSLVGKLISDTISDALLTDSFIILSFLAQNKLCFIQFTKKMESSDVNKRLEKLSALDYKIFYYEIPGPINKTTERHLAINCVHDRVVCWWPLVNDDAWPWAPISSEKDRANLLLLGYAQGRLEVLSSVRTEWDPLDVRFGTKQPYQVFTVEHSVSVDKEPMADSCIYECIRNKIQCVSVTRIPLKSKAISCCRNVTEDKLILGCEDSSLILYETHRRVTLLAQTELLPSLISCHPSGAILLVGSNQGELQIFDMALSPINIQLLAEDRLPRETLQFSKLFDASSSLVQMQWIAPQVVSQKGEGSDIYDLLFLRFERGPLGVLLFKLGVFTRGQLGLIDIIFQYIHCDEIYEAINILSSMNWDTLGHQCFISMSAIVNHLLRQKLTPEREAQLETSLGTFYAPTRPLLDSTILEYRDQISKYARRFFHHLLRYQRFEKAFLLAVDVGARDLFMDIHYLALDKGELALAEVARKRASDIDAESITSGVELLGPLDRGDMLNEAFIGLSLAPQGEDSFPDNLPPSCPTHRHILQQRILNGSSNRQIIDRRNELEKDICSGFLMTNTCNAEDGELREDGREQEIRDGGSLKMIHFGLV |
| binds | human Fuzzy (natural protein, UniProt Q9BT04 1-418, looked up) MGEEGTGGTVHLLCLAASSGVPLFCRSSRGGAPARQQLPFSVIGSLNGVHMFGQNLEVQLSSARTENTTVVWKSFHDSITLIVLSSEVGISELRLERLLQMVFGAMVLLVGLEELTNIRNVERLKKDLRASYCLIDSFLGDSELIGDLTQCVDCVIPPEGSLLQEALSGFAEAAGTTFVSLVVSGRVVAATEGWWRLGTPEAVLLPWLVGSLPPQTARDYPVYLPHGSPTVPHRLLTLTLLPSLELCLLCGPSPPLSQLYPQLLERWWQPLLDPLRACLPLGPRALPSGFPLHTDILGLLLLHLELKRCLFTVEPLGDKEPSPEQRRRLLRNFYTLVTSTHFPPEPGPPEKTEDEVYQAQLPRACYLVLGTEEPGTGVRLVALQLGLRRLLLLLSPQSPTHGLRSLATHTLHALTPLL |

Reference: paper PMC9012472 (Science Advances, 2022)
